Data reported in patent publication US20240118272A1.

Experiments:
[1] = target: CD81(ECD)-ALP conjugate (human; bovine); experiment: HI-1000 capture immunoassay; calibrator C1, 4 ng/mL; run 1
[2] = target: CD81(ECD)-ALP conjugate (human; bovine); experiment: HI-1000 capture immunoassay; calibrator C1, 4 ng/mL; run 2
[3] = target: CD81(ECD)-ALP conjugate (human; bovine); experiment: HI-1000 capture immunoassay; calibrator C1, 4 ng/mL; run 3
[4] = target: CD81(ECD)-ALP conjugate (human; bovine); experiment: HI-1000 capture immunoassay; calibrator C2, 20 ng/mL; run 1
[5] = target: CD81(ECD)-ALP conjugate (human; bovine); experiment: HI-1000 capture immunoassay; calibrator C2, 20 ng/mL; run 2
[6] = target: CD81(ECD)-ALP conjugate (human; bovine); experiment: HI-1000 capture immunoassay; calibrator C2, 20 ng/mL; run 3
[7] = target: CD81(ECD)-ALP conjugate (human; bovine); experiment: HI-1000 capture immunoassay; calibrator C3, 100 ng/mL; run 1
[8] = target: CD81(ECD)-ALP conjugate (human; bovine); experiment: HI-1000 capture immunoassay; calibrator C3, 100 ng/mL; run 2
[9] = target: CD81(ECD)-ALP conjugate (human; bovine); experiment: HI-1000 capture immunoassay; calibrator C3, 100 ng/mL; run 3
[10] = target: CD81(ECD)-ALP conjugate (human; bovine); experiment: HI-1000 capture immunoassay; calibrator C4, 500 ng/mL; run 1
[11] = target: CD81(ECD)-ALP conjugate (human; bovine); experiment: HI-1000 capture immunoassay; calibrator C4, 500 ng/mL; run 2
[12] = target: CD81(ECD)-ALP conjugate (human; bovine); experiment: HI-1000 capture immunoassay; calibrator C4, 500 ng/mL; run 3
[13] = target: CD81(ECD)-ALP conjugate (human; bovine); experiment: HI-1000 capture immunoassay; calibrator C1, 3.45 mU/L; run 1
[14] = target: CD81(ECD)-ALP conjugate (human; bovine); experiment: HI-1000 capture immunoassay; calibrator C1, 3.45 mU/L; run 2
[15] = target: CD81(ECD)-ALP conjugate (human; bovine); experiment: HI-1000 capture immunoassay; calibrator C1, 3.45 mU/L; run 3
[16] = target: CD81(ECD)-ALP conjugate (human; bovine); experiment: HI-1000 capture immunoassay; calibrator C5, 2500 ng/mL; run 1
[17] = target: CD81(ECD)-ALP conjugate (human; bovine); experiment: HI-1000 capture immunoassay; calibrator C5, 2500 ng/mL; run 2
[18] = target: CD81(ECD)-ALP conjugate (human; bovine); experiment: HI-1000 capture immunoassay; calibrator C5, 2500 ng/mL; run 3
[19] = target: CD81(ECD)-ALP conjugate (human; bovine); experiment: HI-1000 capture immunoassay; calibrator C2, 13.80 mU/L; run 1
[20] = target: CD81(ECD)-ALP conjugate (human; bovine); experiment: HI-1000 capture immunoassay; calibrator C2, 13.80 mU/L; run 2
[21] = target: CD81(ECD)-ALP conjugate (human; bovine); experiment: HI-1000 capture immunoassay; calibrator C2, 13.80 mU/L; run 3
[22] = target: CD81(ECD)-ALP conjugate (human; bovine); experiment: HI-1000 capture immunoassay; calibrator C3, 55.20 mU/L; run 1
[23] = target: CD81(ECD)-ALP conjugate (human; bovine); experiment: HI-1000 capture immunoassay; calibrator C3, 55.20 mU/L; run 2
[24] = target: CD81(ECD)-ALP conjugate (human; bovine); experiment: HI-1000 capture immunoassay; calibrator C3, 55.20 mU/L; run 3
[25] = target: CD81(ECD)-ALP conjugate (human; bovine); experiment: HI-1000 capture immunoassay; calibrator C1, 4 ng/mL; mean of 3
[26] = target: CD81(ECD)-ALP conjugate (human; bovine); experiment: HI-1000 capture immunoassay; calibrator C4, 220.80 mU/L; run 1
[27] = target: CD81(ECD)-ALP conjugate (human; bovine); experiment: HI-1000 capture immunoassay; calibrator C4, 220.80 mU/L; run 2
[28] = target: CD81(ECD)-ALP conjugate (human; bovine); experiment: HI-1000 capture immunoassay; calibrator C4, 220.80 mU/L; run 3
[29] = target: CD81(ECD)-ALP conjugate (human; bovine); experiment: HI-1000 capture immunoassay; calibrator C5, 883.16 mU/L; run 1
[30] = target: CD81(ECD)-ALP conjugate (human; bovine); experiment: HI-1000 capture immunoassay; calibrator C5, 883.16 mU/L; run 2
[31] = target: CD81(ECD)-ALP conjugate (human; bovine); experiment: HI-1000 capture immunoassay; calibrator C5, 883.16 mU/L; run 3
[32] = target: CD81(ECD)-ALP conjugate (human; bovine); experiment: HI-1000 capture immunoassay; calibrator C2, 20 ng/mL; mean of 3
[33] = target: CD81(ECD)-ALP conjugate (human; bovine); experiment: HI-1000 capture immunoassay; calibrator C3, 100 ng/mL; mean of 3
[34] = target: CD81(ECD)-ALP conjugate (human; bovine); experiment: HI-1000 capture immunoassay; calibrator C4, 500 ng/mL; mean of 3
[35] = target: CD81(ECD)-ALP conjugate (human; bovine); experiment: HI-1000 capture immunoassay; calibrator C1, 3.45 mU/L; mean of 3
[36] = target: CD81(ECD)-ALP conjugate (human; bovine); experiment: HI-1000 capture immunoassay; calibrator C5, 2500 ng/mL; mean of 3
[37] = target: CD81(ECD)-ALP conjugate (human; bovine); experiment: HI-1000 capture immunoassay; calibrator C2, 13.80 mU/L; mean of 3
[38] = target: CD81(ECD)-ALP conjugate (human; bovine); experiment: HI-1000 capture immunoassay; calibrator C3, 55.20 mU/L; mean of 3
[39] = target: CD81(ECD)-ALP conjugate (human; bovine); experiment: HI-1000 capture immunoassay; calibrator C4, 220.80 mU/L; mean of 3
[40] = target: CD81(ECD)-ALP conjugate (human; bovine); experiment: HI-1000 capture immunoassay; calibrator C5, 883.16 mU/L; mean of 3

Sequence of CD81(ECD)-ALP conjugate (human; bovine) (chain, as listed by the source, chain 1 of 2): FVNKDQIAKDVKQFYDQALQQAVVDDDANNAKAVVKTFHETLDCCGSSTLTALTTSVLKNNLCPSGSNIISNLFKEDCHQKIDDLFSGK
Sequence of CD81(ECD)-ALP conjugate (human; bovine) (P19111 20-506, chain 2 of 2): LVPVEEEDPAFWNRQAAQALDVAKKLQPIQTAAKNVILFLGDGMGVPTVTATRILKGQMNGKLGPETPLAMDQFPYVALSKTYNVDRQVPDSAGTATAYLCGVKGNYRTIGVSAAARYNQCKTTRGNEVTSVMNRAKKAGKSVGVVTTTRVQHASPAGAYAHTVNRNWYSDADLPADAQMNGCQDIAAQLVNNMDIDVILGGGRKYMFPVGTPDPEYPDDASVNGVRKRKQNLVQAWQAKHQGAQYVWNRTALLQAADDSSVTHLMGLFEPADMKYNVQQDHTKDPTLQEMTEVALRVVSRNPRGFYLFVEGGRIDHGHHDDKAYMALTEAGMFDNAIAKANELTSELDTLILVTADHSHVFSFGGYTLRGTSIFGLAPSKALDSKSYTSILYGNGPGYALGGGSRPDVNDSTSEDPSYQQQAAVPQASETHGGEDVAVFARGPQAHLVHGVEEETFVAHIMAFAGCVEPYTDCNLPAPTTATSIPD

anti-CD81 antibody (Clone: 5A6)
Count value [1]: 1270 count
Count value [2]: 1300 count
Count value [3]: 1280 count
Count value [4]: 4480 count
Count value [5]: 4380 count
Count value [6]: 4640 count
Count value [7]: 20000 count
Count value [8]: 20000 count
Count value [9]: 19600 count
Count value [10]: 101000 count
Count value [11]: 100000 count
Count value [12]: 99600 count
Count value [13]: 1380 count
Count value [14]: 1430 count
Count value [15]: 1340 count
Count value [16]: 498000 count
Count value [17]: 496000 count
Count value [18]: 486000 count
Count value [19]: 4650 count
Count value [20]: 4600 count
Count value [21]: 4610 count
Count value [22]: 20900 count
Count value [23]: 20400 count
Count value [24]: 20900 count
Count value (av) [25]: 1280 count
Count value [26]: 105000 count
Count value [27]: 99500 count
Count value [28]: 102000 count
Count value [29]: 503000 count
Count value [30]: 496000 count
Count value [31]: 494000 count
Count value (av) [32]: 4500 count
Count value (av) [33]: 19900 count
Count value (av) [34]: 100000 count
Count value (av) [35]: 1380 count
Count value (av) [36]: 494000 count
Count value (av) [37]: 4620 count
Count value (av) [38]: 20700 count
Count value (av) [39]: 102000 count
Count value (av) [40]: 498000 count
